Measurements as given in PMC10397247.
One block for each binder: values may come before it.

Tests used:
[1] = biological target: T1, 4H3817-bA; assay: two-hybrid library CCNG1;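 further: natural log of median RNA to DNA barcode read ratio; higher means stronger binding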
T1 chain: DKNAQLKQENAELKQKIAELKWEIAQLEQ

[2] = biological target: T2, 4H3175-bA; assay: two-hybrid library CCNG1;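 further: natural log of median RNA to DNA barcode read ratio; higher means stronger binding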
T2 chain: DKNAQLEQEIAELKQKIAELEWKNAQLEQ

[3] = biological target: T3, 4H3162-bA; assay: two-hybrid library CCNG1;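 further: natural log of median RNA to DNA barcode read ratio; higher means stronger binding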
T3 chain: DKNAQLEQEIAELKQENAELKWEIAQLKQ

[4] = biological target: T4, 4H3277-bA; assay: two-hybrid library CCNG1;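 further: natural log of median RNA to DNA barcode read ratio; higher means stronger binding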
T4 chain: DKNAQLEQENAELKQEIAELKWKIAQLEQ

[5] = biological target: T5, 4H3628-bA; assay: two-hybrid library CCNG1
T5 chain: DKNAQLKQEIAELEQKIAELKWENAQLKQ

[6] = biological target: T6, 4H3497-bA; assay: two-hybrid library CCNG1
T6 chain: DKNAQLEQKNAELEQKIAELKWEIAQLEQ

[7] = biological target: T7, 4H3974-bA; assay: two-hybrid library CCNG1
T7 chain: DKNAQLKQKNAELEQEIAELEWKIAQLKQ

[8] = biological target: T8, 4H570-bA; assay: two-hybrid library CCNG1
T8 chain: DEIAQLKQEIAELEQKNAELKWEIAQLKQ

[9] = biological target: T9, 4H1710-bA; assay: two-hybrid library CCNG1
T9 chain: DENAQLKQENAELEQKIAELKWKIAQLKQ

[10] = biological target: T10, 4H591-bA; assay: two-hybrid library CCNG1
T10 chain: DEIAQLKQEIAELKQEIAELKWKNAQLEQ

[11] = biological target: T11, 4H1449-bA; assay: two-hybrid library CCNG1
T11 chain: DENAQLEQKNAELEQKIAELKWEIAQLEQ

[12] = biological target: T12, 4H3613-bA; assay: two-hybrid library CCNG1
T12 chain: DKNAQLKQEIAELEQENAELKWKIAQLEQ

[13] = biological target: T13, 4H850-bA; assay: two-hybrid library CCNG1
T13 chain: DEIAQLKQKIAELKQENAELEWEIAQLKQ

[14] = biological target: T14, 4H906-bA; assay: two-hybrid library CCNG1
T14 chain: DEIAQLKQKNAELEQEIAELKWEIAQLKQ

[15] = biological target: T15, 4H3926-bA; assay: two-hybrid library CCNG1
T15 chain: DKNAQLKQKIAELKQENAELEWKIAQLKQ

[16] = biological target: T16, 4H2691-bA; assay: two-hybrid library CCNG1
T16 chain: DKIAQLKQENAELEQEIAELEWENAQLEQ

[17] = biological target: T17, 4H626-bA; assay: two-hybrid library CCNG1
T17 chain: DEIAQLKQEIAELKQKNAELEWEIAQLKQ

[18] = biological target: T18, 4H3298-bA; assay: two-hybrid library CCNG1
T18 chain: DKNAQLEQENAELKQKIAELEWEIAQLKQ

[19] = biological target: T19, 4H1985-bA; assay: two-hybrid library CCNG1
T19 chain: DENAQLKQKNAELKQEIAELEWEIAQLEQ

[20] = biological target: T20, 4H3858-bA; assay: two-hybrid library CCNG1
T20 chain: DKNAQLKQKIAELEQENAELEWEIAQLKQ

[21] = biological target: T21, 4H1899-bA; assay: two-hybrid library CCNG1
T21 chain: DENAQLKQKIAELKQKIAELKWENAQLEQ

[22] = biological target: T22, 4H1544-bA; assay: two-hybrid library CCNG1
T22 chain: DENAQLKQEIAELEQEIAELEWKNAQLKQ

[23] = biological target: T23, 4H1373-bA; assay: two-hybrid library CCNG1
T23 chain: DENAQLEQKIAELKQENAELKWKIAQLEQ

[24] = biological target: T24, 4H3462-bA; assay: two-hybrid library CCNG1
T24 chain: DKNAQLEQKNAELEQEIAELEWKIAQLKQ

[25] = biological target: T25, 4H619-bN; assay: two-hybrid library CCNG1
T25 chain: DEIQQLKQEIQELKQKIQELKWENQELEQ

[26] = biological target: T26, 4H3041-bN; assay: two-hybrid library CCNG1
T26 chain: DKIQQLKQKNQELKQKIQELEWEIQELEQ

[27] = biological target: T27, 4H730-bN; assay: two-hybrid library CCNG1
T27 chain: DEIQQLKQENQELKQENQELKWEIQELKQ

[28] = biological target: T28, 4H2931-bN; assay: two-hybrid library CCNG1
T28 chain: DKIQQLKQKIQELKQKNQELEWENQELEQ

[29] = biological target: T29, 4H796-bN; assay: two-hybrid library CCNG1
T29 chain: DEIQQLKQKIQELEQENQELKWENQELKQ

[30] = biological target: T30, 4H2859-bN; assay: two-hybrid library CCNG1
T30 chain: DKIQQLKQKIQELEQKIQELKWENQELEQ

[31] = biological target: T31, 4H949-bN; assay: two-hybrid library CCNG1
T31 chain: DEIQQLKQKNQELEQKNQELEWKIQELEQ

[32] = biological target: T32, 4H3364-bN; assay: two-hybrid library CCNG1
T32 chain: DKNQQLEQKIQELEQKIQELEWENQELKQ

[33] = biological target: T33, 4H3297-bN; assay: two-hybrid library CCNG1
T33 chain: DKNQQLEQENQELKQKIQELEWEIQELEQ

[34] = biological target: T34, O11-bH; assay: two-hybrid library CCNG1
T34 chain: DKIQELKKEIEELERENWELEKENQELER

[35] = biological target: T35, 4H349-bN; assay: two-hybrid library CCNG1
T35 chain: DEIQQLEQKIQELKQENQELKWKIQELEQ

[36] = biological target: T36, 4H3381-bN; assay: two-hybrid library CCNG1
T36 chain: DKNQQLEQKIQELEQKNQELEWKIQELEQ

[37] = biological target: T37, 4H56-bN; assay: two-hybrid library CCNG1
T37 chain: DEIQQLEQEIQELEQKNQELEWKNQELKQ

[38] = biological target: T38, 4H932-bN; assay: two-hybrid library CCNG1
T38 chain: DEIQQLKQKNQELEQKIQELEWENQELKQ

[39] = biological target: T39, APC7099-AA; assay: two-hybrid library CCmax; settings: mean of both orientations
T39 chain: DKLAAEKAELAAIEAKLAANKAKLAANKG

[40] = biological target: T40, 4H807-AA; assay: two-hybrid library CCmax; settings: mean of both orientations
T40 chain: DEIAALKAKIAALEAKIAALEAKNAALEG

[41] = biological target: T41, 4H2458-AA; assay: two-hybrid library CCmax; settings: mean of both orientations
T41 chain: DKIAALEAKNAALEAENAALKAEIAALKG

[42] = biological target: T42, 4H2447-AA; assay: two-hybrid library CCmax
T42 chain: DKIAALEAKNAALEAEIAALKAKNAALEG

[43] = biological target: T43, APC9096-AA; assay: two-hybrid library CCmax; settings: mean of both orientations
T43 chain: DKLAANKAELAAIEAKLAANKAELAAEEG

[44] = biological target: T44, APC3645-AA; assay: two-hybrid library CCmax; settings: mean of both orientations
T44 chain: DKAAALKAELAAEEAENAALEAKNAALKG

[45] = biological target: T45, APC8910-AA; assay: two-hybrid library CCmax; settings: mean of both orientations
T45 chain: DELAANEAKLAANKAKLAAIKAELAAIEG

[46] = biological target: T46, APC4436-AA; assay: two-hybrid library CCmax; settings: mean of both orientations
T46 chain: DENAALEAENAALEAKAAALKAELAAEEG

[47] = biological target: T47, APC1015-AA; assay: two-hybrid library CCmax; settings: mean of both orientations
T47 chain: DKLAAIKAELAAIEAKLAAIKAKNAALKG

[48] = biological target: T48, APC2405-AA; assay: two-hybrid library CCmax; settings: mean of both orientations
T48 chain: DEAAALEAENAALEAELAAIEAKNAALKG

[49] = biological target: T49, APC9319-AA; assay: two-hybrid library CCmax; settings: mean of both orientations
T49 chain: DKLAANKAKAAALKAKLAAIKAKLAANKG

[50] = biological target: T50, APC4264-AA; assay: two-hybrid library CCmax; settings: mean of both orientations
T50 chain: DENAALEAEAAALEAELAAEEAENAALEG

[51] = biological target: T51, APC232-AA; assay: two-hybrid library CCmax; settings: mean of both orientations
T51 chain: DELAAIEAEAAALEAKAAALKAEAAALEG

[52] = biological target: T52, 4H3330-AA; assay: two-hybrid library CCmax; settings: mean of both orientations
T52 chain: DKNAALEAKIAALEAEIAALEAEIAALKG

[53] = biological target: T53, APC6108-AA; assay: two-hybrid library CCmax; settings: mean of both orientations
T53 chain: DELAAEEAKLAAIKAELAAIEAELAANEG

[54] = biological target: T54, APC8191-AA; assay: two-hybrid library CCmax; settings: mean of both orientations
T54 chain: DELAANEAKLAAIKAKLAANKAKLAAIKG

[55] = biological target: T55, APC2237-AA; assay: two-hybrid library CCmax; settings: mean of both orientations
T55 chain: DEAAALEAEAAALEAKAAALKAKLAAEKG

[56] = biological target: T56, APC5383-AA; assay: two-hybrid library CCmax; settings: mean of both orientations
T56 chain: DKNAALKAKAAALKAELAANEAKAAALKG

[57] = biological target: T57, APC4011-AA; assay: two-hybrid library CCmax; settings: mean of both orientations
T57 chain: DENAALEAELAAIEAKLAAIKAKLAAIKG

[58] = biological target: T58, APC1434-AA; assay: two-hybrid library CCmax; settings: mean of both orientations
T58 chain: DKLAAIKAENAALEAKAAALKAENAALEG

[59] = biological target: T59, 4H716-AA; assay: two-hybrid library CCmax; settings: mean of both orientations
T59 chain: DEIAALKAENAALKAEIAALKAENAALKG

[60] = biological target: T60, 4H733-AA; assay: two-hybrid library CCmax; settings: mean of both orientations
T60 chain: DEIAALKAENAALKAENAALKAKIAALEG

[61] = biological target: T61, P9A-bP; assay: two-hybrid library CCNG1
T61 chain: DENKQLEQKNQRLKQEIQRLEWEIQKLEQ

[62] = biological target: T62, P7A-bP; assay: two-hybrid library CCNG1
T62 chain: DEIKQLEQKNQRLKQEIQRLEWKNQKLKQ

[63] = biological target: T63, P1A-bP; assay: two-hybrid library CCNG1
T63 chain: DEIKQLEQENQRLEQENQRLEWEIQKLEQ

[64] = biological target: T64, P3A-bP; assay: two-hybrid library CCNG1
T64 chain: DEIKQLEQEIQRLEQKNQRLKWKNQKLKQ

[65] = biological target: T65, P2A-bP; assay: two-hybrid library CCNG1
T65 chain: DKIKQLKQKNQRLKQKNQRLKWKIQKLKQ

[66] = biological target: T66, P5A-bP; assay: two-hybrid library CCNG1
T66 chain: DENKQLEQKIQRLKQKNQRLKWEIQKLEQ

[67] = biological target: T67, P8A-bP; assay: two-hybrid library CCNG1
T67 chain: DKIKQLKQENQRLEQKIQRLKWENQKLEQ

[68] = biological target: T68, P4A-bP; assay: two-hybrid library CCNG1
T68 chain: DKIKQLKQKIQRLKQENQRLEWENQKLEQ

[69] = biological target: T69, P6A-bP; assay: two-hybrid library CCNG1
T69 chain: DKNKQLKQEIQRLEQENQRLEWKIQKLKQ

interaction score [1]: -0.693 | interaction score [2]: -0.89 | interaction score [3]: -0.314 | interaction score [4]: -0.594 | interaction score [5]: -0.805 | interaction score [6]: -1.17 | interaction score [7]: -0.681 | interaction score [8]: -0.799 | interaction score [9]: -0.946 | interaction score [10]: -0.592 | interaction score [11]: -1.22 | interaction score [12]: 1.71 | interaction score [13]: -0.104 | interaction score [14]: -1.26 | interaction score [15]: 2.27 | interaction score [16]: 0.119 | interaction score [17]: -1.61 | interaction score [18]: -0.776 | interaction score [19]: -0.533 | interaction score [20]: 1.36 | interaction score [21]: -1.03 | interaction score [22]: -0.914 | interaction score [23]: 0.464 | interaction score [24]: -0.757 | interaction score [25]: -0.473
Binder: DENAQLEQKIAELKQENAELKWKIAQLEQ [4H1373-bA]

interaction score [26]: 0.995 | interaction score [27]: -1.23 | interaction score [28]: -0.613 | interaction score [29]: -1.23 | interaction score [30]: 0.927 | interaction score [31]: -2.31 | interaction score [32]: -0.713 | interaction score [33]: 0.359 | interaction score [34]: 0.17 | interaction score [35]: -1.06 | interaction score [36]: -1.35 | interaction score [37]: 0.857 | interaction score [38]: -1.18
Binder: DKIQQLKQKIQELEQKIQELKWENQELEQ [4H2859-bN]

interaction score [39]: -1.5 | interaction score [40]: -1.69 | interaction score [41]: -1.42 | interaction score [42]: 1.72 | interaction score [43]: -1.78 | interaction score [44]: -1.7 | interaction score [45]: -1.68 | interaction score [46]: -1.79 | interaction score [47]: -2.05 | interaction score [48]: -1.12 | interaction score [49]: -1.75 | interaction score [50]: -1.6 | interaction score [51]: -1.82 | interaction score [52]: -0.798 | interaction score [53]: -1.28 | interaction score [54]: -1.38 | interaction score [55]: -1.38 | interaction score [56]: -1.8 | interaction score [57]: -0.716 | interaction score [58]: -1.56 | interaction score [59]: -1.36 | interaction score [60]: -1.83
Binder: DKIAALEAKNAALEAEIAALKAKNAALEG [4H2447-AA]

interaction score [61]: -2.64 | interaction score [62]: -0.745 | interaction score [63]: -1.8 | interaction score [64]: -0.629 | interaction score [65]: 1.97 | interaction score [66]: -0.589 | interaction score [67]: -0.0351 | interaction score [68]: -1.23 | interaction score [69]: -0.151
Binder: DEIKQLEQENQRLEQENQRLEWEIQKLEQ [P1A-bP]
